Data on 5 molecules can be found in publication PMC6504876, “TFIIE orchestrates the recruitment of the TFIIH kinase module at promoter before release during transcription” (Nature Communications, 2019).

Sequences and labels used below:
B5: Flag-TFIIEα (natural protein, UniProt P29083 1-439, looked up)
chain: MADPDVLTEVPAALKRLAKYVIRGFYGIEHALALDILIRNSCVKEEDMLELLKFDRKQLRSVLNNLKGDKFIKCRMRVETAADGKTTRHNYYFINYRTLVNVVKYKLDHMRRRIETDERDSTNRASFKCPVCSSTFTDLEANQLFDPMTGTFRCTFCHTEVEEDESAMPKKDARTLLARFNEQIEPIYALLRETEDVNLAYEILEPEPTEIPALKQSKDHAATTAGAASLAGGHHREAWATKGPSYEDLYTQNVVINMDDQEDLHRASLEGKSAKERPIWLRESTVQGAYGSEDMKEGGIDMDAFQEREEGHAGPDDNEEVMRALLIHEKKTSSAMAGSVGAAAPVTAANGSDSESETSESDDDSPPRPAAVAVHKREEDEEEDDEFEEVADDPIVMVAGRPFSYSEVSQRPELVAQMTPEEKEAYIAMGQRMFEDLFE
notes: TFIIEα, the α subunit of the general transcription factor TFIIE; The methods name an anti-Flag-Tag antibody among those used for the co-immunoprecipitations; also called rIIEα/WT; the α subunit of rIIEαβ; source: E. coli, purified; alone or co-produced with rIIEβ

Holding throughout (settings): both partners purified
The target in one assay is T1, Flag-XPD/WT (UniProt P18074 1-760).
T1 construct: XPD subunit of TFIIH; also called the XPD subunit of rIIH/WT; source: Sf21 insect cells infected with baculoviruses for all TFIIH subunits
The assay can be described thus: co-IP; purified rIIH with XPD/WT, /R112H or /R722W immunoprecipitated with anti-XPD and incubated at 150 and 500 mM KCl; blots for XPB, XPD, CDK7 (Fig. 3f).

The assay “Flag-TFIIEα” addresses B5. The assay can be described thus: co-IP; rIIEα/WT co-produced with rIIEβ/WT, /A150P or /D187Y, immunoprecipitated at 150 and 500 mM KCl; blots for IIEα and IIEβ (Fig. 3e).
Assay [1] deals with T2, recombinant TFIIH (rIIH/WT) (UniProt P18074 1-760; P19447 1-782; P32780 1-548; Q92759 1-462; Q13888 1-395; Q13889 …).
T2 construct: XPD subunit of TFIIH; XPB subunit of TFIIH; p62 subunit of TFIIH; p52 subunit of TFIIH; p44 subunit of TFIIH; p34 subunit of TFIIH; p8 (TTDA, TTD-A) subunit of TFIIH; cdk7 (CDK7 kinase), CAK subunit of TFIIH; cyclin H, CAK subunit of TFIIH; MAT1, CAK subunit of TFIIH; also called rIIH-XPD/WT; TFIIH/WT; copies: + + + + + + + + +
The assay can be described thus: co-IP; rIIH/WT immunoprecipitated with anti-p62 (protein G magnetic beads) and incubated with rIIEαβ (α and β added together as the co-produced rIIE), washes at 150 and 500 mM KCl; blots with anti-XPB, anti-IIEα, anti-IIEβ (Fig. 3b).

B1: CDK7 (natural protein, UniProt P50613 1-346, looked up)
chain: MALDVKSRAKRYEKLDFLGEGQFATVYKARDKNTNQIVAIKKIKLGHRSEAKDGINRTALREIKLLQELSHPNIIGLLDAFGHKSNISLVFDFMETDLEVIIKDNSLVLTPSHIKAYMLMTLQGLEYLHQHWILHRDLKPNNLLLDENGVLKLADFGLAKSFGSPNRAYTHQVVTRWYRAPELLFGARMYGVGVDMWAVGCILAELLLRVPFLPGDSDLDQLTRIFETLGTPTEEQWPDMCSLPDYVTFKSFPGIPLHHIFSAAGDDLLDLIQGLFLFNPCARITATQALKMKYFSNRPGPTPGCQLPRPNCPVETLKEQSNPALAIKRKRTEALEQGGLPKKLIF
notes: CDK7 kinase, CAK subunit of TFIIH; It stood in the assay together with the other TFIIH subunits; also called CDK7 kinase of the CAK; source: Sf21 insect cells infected with baculoviruses for all TFIIH subunits; in whole cell extract, and purified within rIIH through Flag-XPD
B1: the binding result with Flag-XPD/WT is “binds”.

B2: His-TFIIEβ/WT (natural protein, UniProt P29084 1-291, looked up)
chain: MDPSLLRERELFKKRALSTPVVEKRSASSESSSSSSKKKKTKVEHGGSSGSKQNSDHSNGSFNLKALSGSSGYKFGVLAKIVNYMKTRHQRGDTHPLTLDEILDETQHLDIGLKQKQWLMTEALVNNPKIEVIDGKYAFKPKYNVRDKKALLRLLDQHDQRGLGGILLEDIEEALPNSQKAVKALGDQILFVNRPDKKKILFFNDKSCQFSVDEEFQKLWRSVTVDSMDEEKIEEYLKRQGISSMQESGPKKVAPIQRRKKPASQKKRRFKTHNEHLAGVLKDYSDITSSK
notes: TFIIEβ, the β subunit of the general transcription factor TFIIE, encoded by GTF2E2; also called rIIEβ/WT; the β subunit of rIIEαβ/WT; source: E. coli, purified; alone or co-produced with rIIEα/WT
Consider B2, for which the binding result (in the assay with Flag-TFIIEα; in assay [1]) was “binds” in each case.

B3: His-TFIIEβ/A150P (natural protein, UniProt P29084 1-291, looked up)
chain: MDPSLLRERELFKKRALSTPVVEKRSASSESSSSSSKKKKTKVEHGGSSGSKQNSDHSNGSFNLKALSGSSGYKFGVLAKIVNYMKTRHQRGDTHPLTLDEILDETQHLDIGLKQKQWLMTEALVNNPKIEVIDGKYAFKPKYNVRDKKPLLRLLDQHDQRGLGGILLEDIEEALPNSQKAVKALGDQILFVNRPDKKKILFFNDKSCQFSVDEEFQKLWRSVTVDSMDEEKIEEYLKRQGISSMQESGPKKVAPIQRRKKPASQKKRRFKTHNEHLAGVLKDYSDITSSK
notes: TFIIEβ with the trichothiodystrophy patient mutation c.448G>C [p.Ala150Pro]; The mutation is found in TTD patients; also called rIIEβ/A150P; the β subunit of rIIEαβ/A150P; source: E. coli, co-produced with rIIEα/WT, purified
Take B3: the binding result (with Flag-TFIIEα; in assay [1]) was “binds” in each case.

B4: His-TFIIEβ/D187Y (natural protein, UniProt P29084 1-291, looked up)
chain: MDPSLLRERELFKKRALSTPVVEKRSASSESSSSSSKKKKTKVEHGGSSGSKQNSDHSNGSFNLKALSGSSGYKFGVLAKIVNYMKTRHQRGDTHPLTLDEILDETQHLDIGLKQKQWLMTEALVNNPKIEVIDGKYAFKPKYNVRDKKALLRLLDQHDQRGLGGILLEDIEEALPNSQKAVKALGYQILFVNRPDKKKILFFNDKSCQFSVDEEFQKLWRSVTVDSMDEEKIEEYLKRQGISSMQESGPKKVAPIQRRKKPASQKKRRFKTHNEHLAGVLKDYSDITSSK
notes: TFIIEβ with the trichothiodystrophy patient mutation D187Y; The mutation is found in TTD patients; also called rIIEβ/D187Y; the β subunit of rIIEαβ/D187Y; source: E. coli, co-produced with rIIEα/WT, purified
Consider B4, for which the binding result (with Flag-TFIIEα; in assay [1]) was “binds” throughout.
Consider B5, for which the binding result in assay [1] is “binds”.
